{
  "source": "paper PMC7679967",
  "about": "(Protein Science : A Publication of the Protein Society, 2020)",
  "binders": {"B1": {"name": "Hop112a (Hop aa. 1-352; TPR1, DP1 and TPR2A) (domain or fragment)", "chain": "not shown"}},
  "biological_target": "human Hsp90β (HSP90AB1) (human, UniProt P08238 1-724)",
  "sequence (P08238 whole entry)": "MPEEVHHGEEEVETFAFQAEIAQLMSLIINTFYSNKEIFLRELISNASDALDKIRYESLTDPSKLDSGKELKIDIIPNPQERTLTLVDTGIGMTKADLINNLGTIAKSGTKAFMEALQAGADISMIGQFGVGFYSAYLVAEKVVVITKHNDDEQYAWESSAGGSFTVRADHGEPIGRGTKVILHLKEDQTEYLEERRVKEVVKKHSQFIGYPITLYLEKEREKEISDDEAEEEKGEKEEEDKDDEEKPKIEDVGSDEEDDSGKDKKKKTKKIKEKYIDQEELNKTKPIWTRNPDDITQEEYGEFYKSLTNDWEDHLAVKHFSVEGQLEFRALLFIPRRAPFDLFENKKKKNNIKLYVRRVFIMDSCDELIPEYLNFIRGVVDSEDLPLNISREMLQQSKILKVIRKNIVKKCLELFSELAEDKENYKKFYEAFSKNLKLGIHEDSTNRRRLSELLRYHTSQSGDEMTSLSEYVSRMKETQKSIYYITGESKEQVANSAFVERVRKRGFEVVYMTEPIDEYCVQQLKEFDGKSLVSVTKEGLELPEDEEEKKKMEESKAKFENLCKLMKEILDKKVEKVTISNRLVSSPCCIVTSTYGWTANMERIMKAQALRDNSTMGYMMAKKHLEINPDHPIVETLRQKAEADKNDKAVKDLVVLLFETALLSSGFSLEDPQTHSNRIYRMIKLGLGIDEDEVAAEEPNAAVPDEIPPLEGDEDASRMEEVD",
  "assay": "ITC",
  "data": [
    {"binder": "B1", "values": [
      {"measurement": "Kd", "result": 3.59, "unit": "µM"},
      {"measurement": "stoichiometry N", "result": 0.5}
    ]}
  ]
}
